How the values were obtained:
[1] = Control fluorescence of small p-cyanophenylalanine peptide in solvents and buffer; assay type: physicochemical
From the text: In vitro assays of amyloid formation often involve solubilizing the peptide of interest in a fluorinated alcohol, typically hexafluoroisopropanol (HFIP). The fibrillization reaction is initiated by diluting the stock solution into aqueous buffer. […] A small, soluble p-cyanophenylalanine containing peptide (Gly-PheC≡N-Ala-Ala) was synthesized for the control studies. […] The fluorescence intensity was reduced by approximately 30%.

[2] = biological target: T1, hIAPP-Y37FC≡N (Homo sapiens, UniProt P10997); assay: p-Cyanophenylalanine fluorescence-detected kinetics of hIAPP-Y37FC≡N amyloid formation in presence and absence of rifampicin; assay type: biochemical; conditions: no rifampicin, 32 μM peptide
T1 construct: hIAPP is 37 residues in length, contains a disulfide bond linking residues 2 and 7 and has an amidated C-terminus; made in house; host or cells: chemical synthesis (Fmoc solid phase; Fmoc-4-cyanoPhe from NovaBiochem)
T1 sequence (P10997 with tags, fused parts or gaps): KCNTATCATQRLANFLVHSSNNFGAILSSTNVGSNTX
Procedure: Thioflavin-T Fluorescence. All fluorescence experiments were performed with a Jobin Yvon Horiba fluorescence spectrophotometer or with an Applied Phototechnology Fluorescence Spectrophotometer. An excitation wavelength of 450 nm and emission wavelength of 485 nm was used for the thioflavin-T studies. The excitation and emission slits were set at 5 nm. A 1.0 cm cuvette was used and each point was averaged for 1 minute. All solutions for these studies were prepared by diluting filtered stock solution (0.45 μm filter) into a Tris-HCl buffer (pH 7.4) and thioflavin-T solution immediately before the measurement. The final concentration was 32 μM peptide and 25 μM thioflavin-T with or without rifampicin in 2% HFIP for all experiments. The final concentration of ascorbic acid used in antioxidant experiments was 83 μM. All solutions were stirred during the fluorescence experiments. P-cyanophenylalanine fluorescence was excited at 240 nm and detected at 296 nm, with both excitation and emission slits of 10 nm.

[3] = p-Cyanophenylalanine fluorescence kinetic assay of amyloid formation by the peptides; assay type: physicochemical; conditions: 32 μM peptide, 20 mM Tris-HCl, 2% HFIP
From the text: (§1) Wild-type IAPP, IAPP-Y37FC≡N and a G-FCN-A-A tetrapeptide were synthesized and the disulfide bond in IAPP was formed using dimethyl sulfoxide (DMSO) based oxidation as described in Abedini et al., Analytical Biochemistry 351, 181-186 (2006) incorporated herein by reference. The synthesis of peptides is well known in the art. Synthesizers such as the Applied Biosystems 433A are commercially available with ample instructions for use and are generally accessible to practitioners in the art. Fmoc-4-cyanoPhe was obtained from NovaBiochem. Peptides were purified via reverse phase HPLC and the identities confirmed by MALDI mass spectroscopy. Thioflavin-T fluorescence experiments were performed with a Jobin Yvon Horiba fluorescence spectrophotometer or with an Applied Phototechnology fluorescence spectrophotometer. P-cyanoPhe fluorescence was excited at 240 nm and detected at 296 nm with instrument slit widths of 10 nm on an Applied Photon Technologies fluorimeter. […]
(§2) Fibrillization reactions were initiated by diluting the stock 50-fold into buffered (20 mM Tris-HCl, pH 7.4) aqueous solution. […] The spectrum is the average of three repeats in a 0.1 cm quartz cuvette and recorded over a range of 190-250 nm, at 1 nm intervals, with an averaging time of three seconds per scan. […]

[4] = Thioflavin-T fluorescence kinetic assay of amyloid (fibril) formation by the peptides; assay type: physicochemical; conditions: 32 μM peptide, 20 mM Tris-HCl, 2% HFIP
From the text: as §1, §2

[5] = biological target: the molecule itself; assay: cell-based or functional assay

With Gly-PheC≡N-Ala-Ala the “reduction of fluorescence intensity” value ([1]; 20 mM Tris-HCl) was “approximately 30%” and the “fluorescence intensity in water vs 2% HFIP” value ([1]; water, 2% HFIP, very similar in 100% HFIP) was “the same”.

In the case of “KCNTATCATQRLANFLVHSSNNFGAILSSTNVGSNTFC≡N (HELM PEPTIDE1{K.C.N.T.A.T.C.A.T.Q.R.L.A.N.F.L.V.H.S.S.N.N.F.G.A.I.L.S.S.T.N.V.G.S.N.T.[N#Cc1ccc(C[C@H](N[*:1])C(=O)[*:2])cc1].[am]}$PEPTIDE1,PEPTIDE1,2:R3-7:R3$$$V2.0; N-terminus assumed; SMILES CC[C@H](C)[C@H](NC(=O)[C@H](C)NC(=O)CNC(=O)[C@H](Cc1ccccc1)NC(=O)[C@H](CC(N)=O)NC(=O)[C@H](CC(N)=O)NC(=O)[C@H](CO)NC(=O)[C@H](CO)NC(=O)[C@H](Cc1c[nH]cn1)NC(=O)[C@@H](NC(=O)[C@H](CC(C)C)NC(=O)[C@H](Cc1ccccc1)NC(=O)[C@H](CC(N)=O)NC(=O)[C@H](C)NC(=O)[C@H](CC(C)C)NC(=O)[C@H](CCCNC(=N)N)NC(=O)[C@H](CCC(N)=O)NC(=O)[C@@H](NC(=O)[C@H](C)NC(=O)[C@@H]1CSSC[C@H](NC(=O)[C@@H](N)CCCCN)C(=O)N[C@@H](CC(N)=O)C(=O)N[C@@H]([C@@H](C)O)C(=O)N[C@@H](C)C(=O)N[C@@H]([C@@H](C)O)C(=O)N1)[C@@H](C)O)C(C)C)C(=O)N[C@@H](CC(C)C)C(=O)N[C@@H](CO)C(=O)N[C@@H](CO)C(=O)N[C@H](C(=O)N[C@@H](CC(N)=O)C(=O)N[C@H](C(=O)NCC(=O)N[C@@H](CO)C(=O)N[C@@H](CC(N)=O)C(=O)N[C@H](C(=O)N[C@@H](Cc1ccc(C#N)cc1)C(N)=O)[C@@H](C)O)C(C)C)[C@@H](C)O) [hIAPP-Y37FC≡N, human IAPP with Tyr-37 replaced with p-cyanoPhe]”, the “growth phase (10% to 80% completion) in absence of the drug” value [2] is reported as 6 min, the “t50 time when rifampicin is absent” value ([2]; 2% HFIP, 25° C., pH 7.4) is reported as 18 min and the “time of the growth period (20 to 80% completion) by p-cyanophenylalanine fluorescence” value ([3]; pH 7.4) is reported as 248 ± 12 s. The “midpoint (t50) of amyloid formation as determined by p-cyanophenylalanine fluorescence” value ([3]; pH 7.4, 25° C.) was 1,100±100 s, the “time of the growth period (20 to 80% completion) by thioflavin-T fluorescence” value ([4]; pH 7.4) was 247 ± 12 s and the “midpoint (t50) of amyloid formation as determined by thioflavin-T fluorescence” value ([4]; pH 7.4, 25° C.) was 1,130±100 s.

B1: hIAPP-Y37FC≡N (peptide)
peptide: KCNTATCATQRLANFLVHSSNNFGAILSSTNVGSNTF
HELM: PEPTIDE1{K.C.N.T.A.T.C.A.T.Q.R.L.A.N.F.L.V.H.S.S.N.N.F.G.A.I.L.S.S.T.N.V.G.S.N.T.[N#Cc1ccc(C[C@H](N[*:1])C(=O)[*:2])cc1].[am]}$PEPTIDE1,PEPTIDE1,2:R3-7:R3$$$V2.0; N-terminus assumed
SMILES: CC[C@H](C)[C@H](NC(=O)[C@H](C)NC(=O)CNC(=O)[C@H](Cc1ccccc1)NC(=O)[C@H](CC(N)=O)NC(=O)[C@H](CC(N)=O)NC(=O)[C@H](CO)NC(=O)[C@H](CO)NC(=O)[C@H](Cc1c[nH]cn1)NC(=O)[C@@H](NC(=O)[C@H](CC(C)C)NC(=O)[C@H](Cc1ccccc1)NC(=O)[C@H](CC(N)=O)NC(=O)[C@H](C)NC(=O)[C@H](CC(C)C)NC(=O)[C@H](CCCNC(=N)N)NC(=O)[C@H](CCC(N)=O)NC(=O)[C@@H](NC(=O)[C@H](C)NC(=O)[C@@H]1CSSC[C@H](NC(=O)[C@@H](N)CCCCN)C(=O)N[C@@H](CC(N)=O)C(=O)N[C@@H]([C@@H](C)O)C(=O)N[C@@H](C)C(=O)N[C@@H]([C@@H](C)O)C(=O)N1)[C@@H](C)O)C(C)C)C(=O)N[C@@H](CC(C)C)C(=O)N[C@@H](CO)C(=O)N[C@@H](CO)C(=O)N[C@H](C(=O)N[C@@H](CC(N)=O)C(=O)N[C@H](C(=O)NCC(=O)N[C@@H](CO)C(=O)N[C@@H](CC(N)=O)C(=O)N[C@H](C(=O)N[C@@H](Cc1ccc(C#N)cc1)C(N)=O)[C@@H](C)O)C(C)C)[C@@H](C)O
With B1 the “midpoint (t50) of amyloid formation, p-cyanophenylalanine fluorescence” value [5] was 1100 s and the “midpoint (t50) of amyloid formation, thioflavin-T fluorescence” value [5] was 1130 s.

B2: hIAPP-F15FC≡N (peptide)
peptide: KCNTATCATQRLANFLVHSSNNFGAILSSTNVGSNTY
HELM: PEPTIDE1{K.C.N.T.A.T.C.A.T.Q.R.L.A.N.[N#Cc1ccc(C[C@H](N[*:1])C(=O)[*:2])cc1].L.V.H.S.S.N.N.F.G.A.I.L.S.S.T.N.V.G.S.N.T.Y.[am]}$PEPTIDE1,PEPTIDE1,2:R3-7:R3$$$V2.0; N-terminus assumed
SMILES: CC[C@H](C)[C@H](NC(=O)[C@H](C)NC(=O)CNC(=O)[C@H](Cc1ccccc1)NC(=O)[C@H](CC(N)=O)NC(=O)[C@H](CC(N)=O)NC(=O)[C@H](CO)NC(=O)[C@H](CO)NC(=O)[C@H](Cc1c[nH]cn1)NC(=O)[C@@H](NC(=O)[C@H](CC(C)C)NC(=O)[C@H](Cc1ccc(C#N)cc1)NC(=O)[C@H](CC(N)=O)NC(=O)[C@H](C)NC(=O)[C@H](CC(C)C)NC(=O)[C@H](CCCNC(=N)N)NC(=O)[C@H](CCC(N)=O)NC(=O)[C@@H](NC(=O)[C@H](C)NC(=O)[C@@H]1CSSC[C@H](NC(=O)[C@@H](N)CCCCN)C(=O)N[C@@H](CC(N)=O)C(=O)N[C@@H]([C@@H](C)O)C(=O)N[C@@H](C)C(=O)N[C@@H]([C@@H](C)O)C(=O)N1)[C@@H](C)O)C(C)C)C(=O)N[C@@H](CC(C)C)C(=O)N[C@@H](CO)C(=O)N[C@@H](CO)C(=O)N[C@H](C(=O)N[C@@H](CC(N)=O)C(=O)N[C@H](C(=O)NCC(=O)N[C@@H](CO)C(=O)N[C@@H](CC(N)=O)C(=O)N[C@H](C(=O)N[C@@H](Cc1ccc(O)cc1)C(N)=O)[C@@H](C)O)C(C)C)[C@@H](C)O
With B2 the “midpoint (t50) of amyloid formation, p-cyanophenylalanine fluorescence” value [5] was 936 s and the “midpoint (t50) of amyloid formation, thioflavin-T fluorescence” value [5] was 913 s.

B3: hIAPP-F23FC≡N (peptide)
peptide: KCNTATCATQRLANFLVHSSNNFGAILSSTNVGSNTY
HELM: PEPTIDE1{K.C.N.T.A.T.C.A.T.Q.R.L.A.N.F.L.V.H.S.S.N.N.[N#Cc1ccc(C[C@H](N[*:1])C(=O)[*:2])cc1].G.A.I.L.S.S.T.N.V.G.S.N.T.Y.[am]}$PEPTIDE1,PEPTIDE1,2:R3-7:R3$$$V2.0; N-terminus assumed
SMILES: CC[C@H](C)[C@H](NC(=O)[C@H](C)NC(=O)CNC(=O)[C@H](Cc1ccc(C#N)cc1)NC(=O)[C@H](CC(N)=O)NC(=O)[C@H](CC(N)=O)NC(=O)[C@H](CO)NC(=O)[C@H](CO)NC(=O)[C@H](Cc1c[nH]cn1)NC(=O)[C@@H](NC(=O)[C@H](CC(C)C)NC(=O)[C@H](Cc1ccccc1)NC(=O)[C@H](CC(N)=O)NC(=O)[C@H](C)NC(=O)[C@H](CC(C)C)NC(=O)[C@H](CCCNC(=N)N)NC(=O)[C@H](CCC(N)=O)NC(=O)[C@@H](NC(=O)[C@H](C)NC(=O)[C@@H]1CSSC[C@H](NC(=O)[C@@H](N)CCCCN)C(=O)N[C@@H](CC(N)=O)C(=O)N[C@@H]([C@@H](C)O)C(=O)N[C@@H](C)C(=O)N[C@@H]([C@@H](C)O)C(=O)N1)[C@@H](C)O)C(C)C)C(=O)N[C@@H](CC(C)C)C(=O)N[C@@H](CO)C(=O)N[C@@H](CO)C(=O)N[C@H](C(=O)N[C@@H](CC(N)=O)C(=O)N[C@H](C(=O)NCC(=O)N[C@@H](CO)C(=O)N[C@@H](CC(N)=O)C(=O)N[C@H](C(=O)N[C@@H](Cc1ccc(O)cc1)C(N)=O)[C@@H](C)O)C(C)C)[C@@H](C)O
For B3, the “midpoint (t50) of amyloid formation, p-cyanophenylalanine fluorescence” value [5] was 982 s and the “midpoint (t50) of amyloid formation, thioflavin-T fluorescence” value [5] was 972 s.
